# Data taken from patent CN114349850A (JIANG QINGHUA; WANG PINGPING; STEP HIGH; ZHAO DONGMING, dated 2022).
# Tests used:
# SARS-CoV-2 Spike蛋白 = SARS-CoV-2 Spike蛋白 (SARS-CoV-2, UniProt P0DTC2 16-1213); assay: cell-based or functional assay
# SARS-CoV-2 Spike RBD区域蛋白 = SARS-CoV-2 Spike RBD区域蛋白 (SARS-CoV-2, UniProt P0DTC2 319-541); assay: competitive ELISA, GD1-69 against ACE2 for SARS-CoV-2 S protein / RBD
binder,measurement,setting,value
"GD1-69 (antibody, human IgG1, kappa, V domains shown, also called 目标抗体; GD1-69抗体) VH: EVQLLESGGGLVQPGGSLRLSCAASGFTFSNYAMSWVRQAPGKGLEWVSVIYSGVSSTYYEDSVKGRFTISRDNSKNTLYLQMNSLRAEDTAVYYCAKDPSYDTRGYIFDYWGQGTLVTVSS VL: DIVMTQSPATLSVSPGERATLSCRASQSVSTNLAWYQQKPGQAPRLLIYGTSTRATGVPARFSGSGSGTEFTLTISSLQSEDFAIYYCLQYNNWRTFGQGTKLEIKR","噬斑减少中和测试 (活SARS-CoV-2病毒, Vero E6细胞) IC50",SARS-CoV-2 Spike蛋白,0.44 µg/mL
same,基于假病毒的中和试验 IC50,SARS-CoV-2 Spike蛋白,1.77 µg/mL
same,IC50,SARS-CoV-2 Spike RBD区域蛋白,0.26 µg/mL
